Experimental data taken from patent US20100273979A1.

Key:
[1] = biological target: human serum albumin (human), P02768; experiment: SPR (Biacore2000), HSA immobilised on CM-5, analyte injected at 25 nM; qualitative
[2] = biological target: mouse serum albumin (mouse), P07724; experiment: SPR (Biacore2000), MSA immobilised on CM-5, analyte injected at 25 nM; qualitative
[3] = biological target: human serum albumin (human), P02768; experiment: SPR (Biacore2000), HSA immobilised (450 RU), analyte 4-400 nM

Chain of mouse serum albumin (mouse), P07724 (P07724 25-608 limits assumed): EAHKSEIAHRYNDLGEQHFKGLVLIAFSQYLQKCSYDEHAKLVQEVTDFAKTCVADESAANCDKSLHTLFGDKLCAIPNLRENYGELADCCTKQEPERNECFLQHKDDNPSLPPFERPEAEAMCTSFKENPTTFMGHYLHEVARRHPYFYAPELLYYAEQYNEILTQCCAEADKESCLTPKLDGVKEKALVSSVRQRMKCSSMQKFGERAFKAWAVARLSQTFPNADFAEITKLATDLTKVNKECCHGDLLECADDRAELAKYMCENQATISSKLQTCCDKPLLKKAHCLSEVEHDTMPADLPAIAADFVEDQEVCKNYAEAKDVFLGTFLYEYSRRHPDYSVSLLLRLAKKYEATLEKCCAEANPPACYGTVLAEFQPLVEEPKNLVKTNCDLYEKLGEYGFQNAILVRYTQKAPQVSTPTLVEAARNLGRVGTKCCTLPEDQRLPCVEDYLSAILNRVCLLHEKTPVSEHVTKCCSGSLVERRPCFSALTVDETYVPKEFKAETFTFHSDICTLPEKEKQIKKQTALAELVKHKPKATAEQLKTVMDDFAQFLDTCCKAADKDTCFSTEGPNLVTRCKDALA

**Q.** With LAEAKVLANRELDKYGVSDYYKNLINNAKTVEGVKALIDEILAALP (modifications not checked) as the binder, how does the Kd [1] read?
**A.** 1.5 nM

**Q.** What about the Kd [2] of the same binder?
**A.** 4.9 nM

**Q.** What about the Kd [3] of the same binder?
**A.** 1.2 nM

**Q.** What about the koff [3] of the same binder?
**A.** 0.00065 s⁻¹

**Q.** And the kon [3]?
**A.** 550000 M⁻¹ s⁻¹
